Results reported in publication PMC8093899 (iScience, 2021).

Key:
SEC = target: the molecule itself; assay: SEC
[1] = target: full-length CD146, wild type, with a FLAG tag or a Myc tag (human, UniProt P43121); assay: co-IP
Chain of full-length CD146, wild type, with a FLAG tag or a Myc tag (P43121 24-646): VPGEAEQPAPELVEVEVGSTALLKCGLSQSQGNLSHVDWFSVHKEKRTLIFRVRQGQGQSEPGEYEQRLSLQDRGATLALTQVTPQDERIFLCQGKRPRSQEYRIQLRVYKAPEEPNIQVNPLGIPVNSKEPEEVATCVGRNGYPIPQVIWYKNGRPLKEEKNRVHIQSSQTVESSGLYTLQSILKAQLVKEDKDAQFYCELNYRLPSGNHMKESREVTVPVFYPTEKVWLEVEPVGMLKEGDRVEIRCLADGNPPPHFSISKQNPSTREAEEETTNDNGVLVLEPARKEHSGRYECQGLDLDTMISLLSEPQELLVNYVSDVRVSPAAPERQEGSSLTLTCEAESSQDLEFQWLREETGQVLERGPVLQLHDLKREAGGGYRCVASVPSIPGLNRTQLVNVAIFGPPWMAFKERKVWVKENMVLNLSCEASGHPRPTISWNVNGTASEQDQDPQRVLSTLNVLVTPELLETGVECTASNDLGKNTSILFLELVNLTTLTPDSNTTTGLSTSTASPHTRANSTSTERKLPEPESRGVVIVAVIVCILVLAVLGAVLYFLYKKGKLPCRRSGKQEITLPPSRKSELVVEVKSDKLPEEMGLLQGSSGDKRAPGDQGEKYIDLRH

binding result [1]	Binder	stoichiometry N (SEC)
	human CD146 fragment containing domain 4 and domain 5 (D4-D5, Gln336 to Leu519) (domain or fragment, UniProt P43121 336-519, looked up, two N-glycosylation sites on D4 and D5 seen in the electron density map) QELLVNYVSDVRVSPAAPERQEGSSLTLTCEAESSQDLEFQWLREETGQVLERGPVLQLHDLKREAGGGYRCVASVPSIPGLNRTQLVNVAIFGPPWMAFKERKVWVKENMVLNLSCEASGHPRPTISWNVNGTASEQDQDPQRVLSTLNVLVTPELLETGVECTASNDLGKNTSILFLELVNL	2
binds	HA98 (AA98 mAb mutant H13–112: heavy chain (I28K)/light chain (L51Y)) (antibody, V domains shown) VH: EVQLLESGAELVRPGASVKLSCKTSGYKFTNYWIHWVKQRSGQGLEWIARIYPGTDITYYNEKFKGKATLTVDKSSSSAYMLLSSLKSEDSSVYFCARSGGYWYFDVWGAGTTVTVSS VL: ELVMTQSPASLAVSLGQRATISCRASKSVSISGYSYMHWYQQKPGQPPKLYIYLASNLESGVPARFSGSGSGTDFTLNIHPVEEEDAATYYCQHSRELPYTFGGGTKLEIK	
